Assay [1] concerns the target huN1-NRRHD chimeric antigen, HD-C Subdomain swap 4 (to Notch2 sequence) (human; human with Notch2 residues) (UniProt P46531). Kind of assay: ELISA on coated conditioned medium. (ELISA stands for enzyme-linked immunosorbent assay.)
In assay [2] the target is huN1-NRRHD chimeric antigen, HD-C Subdomain swap 2 (to Notch2 sequence) (human; human with Notch2 residues) (UniProt P46531). Kind of assay: ELISA on coated conditioned medium.
Assay [3] addresses Notch1 chimeric antigen, Lin-A domain swapped with murine sequence (human; human with mouse Lin-A) (UniProt P46531). Kind of assay: ELISA on coated conditioned medium.
Assay [4] concerns the target huN1-NRRHD chimeric antigen, HD-C Subdomain swap 3 (to Notch2 sequence) (human; human with Notch2 residues) (UniProt P46531). Description: ELISA on coated conditioned medium.
Assay [5] concerns the target huN1-NRRHD chimeric antigen, HD-C Subdomain swap 1 (to Notch2 sequence) (human; human with Notch2 residues) (UniProt P46531). Kind of assay: ELISA on coated conditioned medium.
The target of assay [6] is huN1-NRRHD chimeric antigen, HD-C Subdomain swap 5 (to Notch2 sequence) (human; human with Notch2 residues) (UniProt P46531). Description: ELISA on coated conditioned medium.
The target in assay [7] is huN1-NRRHD Mutant 1466L/A (human) (UniProt P46531). Kind of assay: ELISA, relative to huN1-NRRHD.
In assay [8] the target is huN1-NRRHD Mutant 1465S/N (human) (UniProt P46531). Description: ELISA, relative to huN1-NRRHD.
For assay [9], the target named is Notch1 chimeric antigen, Lin-A domain swapped with murine sequence (human; human with mouse Lin-A) (UniProt P46531). Description: ELISA, relative to huN1-NRRHD.
The target of assay [10] is huN1-NRRHD Mutant 1467Q/A (human) (UniProt P46531). Kind of assay: ELISA, relative to huN1-NRRHD.
Assay [11] concerns the target huN1-NRRHD Mutant 1457E/A (human) (UniProt P46531). Description: ELISA, relative to huN1-NRRHD.
Assay [12] has as its target huN1-NRRHD Mutant 1462K/A (human) (UniProt P46531). Description: ELISA, relative to huN1-NRRHD.
In assay [13] the target is huN1-NRRHD Mutant 1463V/A (human) (UniProt P46531). Kind of assay: ELISA, relative to huN1-NRRHD.

B1: mouse monoclonal antibody N248A (antibody, IgG1, V domains shown)
VH: QVQLQQSGAELMKPGASVKISCKATGYTFSNYWMEWVKQRPGHGLEWIGEILPGRGRTNYNENFKGKATFTADTSSNTVYMQLNSLTSEDSAVYYCARFHSSAYYYTMDYWGQRTSVTVSS
VL: QAVVTQESALTTSPGETVTLTCRSSTGAVTTSNYANWVQEKPDHLFTGLIGGTNNRAPGIPARFSGSLIGDKAALTITGAQTEDEAIYFCALWYSNHWVFGGGTKLTVL
Regarding B1, the ELISA reading (Binding activity) amounted to 2.89 in assay [1]; 2.76 in [2]; 2.81 in assay [4]; 0.48 in assay [5]; 1.48 in assay [6]. This molecule also yielded an ELISA reading in assay [3] of 0.33. Besides, the Binding activity in assay [7] came to 1%; in assay [8], 8%; in assay [9] it was 11%; in assay [10] it was 4%; in [11], 112%; in [12], 85%. Further, in [13], the Binding activity turned out to be 6%.
